Assays:
[1] = molecular target: Factor X (FX), substrate zymogen, P00742
[2] = molecular target: Antithrombin III (plasma purified human AT-III, Molecular Innovations), as AT-III/UFH complex
[3] = molecular target: plasma purified human AT-III (antithrombin III), in complex with full-length unfractionated heparin (AT-III/UFH)

Sequence of Factor X (FX), P00742 (P00742 whole entry, looked up): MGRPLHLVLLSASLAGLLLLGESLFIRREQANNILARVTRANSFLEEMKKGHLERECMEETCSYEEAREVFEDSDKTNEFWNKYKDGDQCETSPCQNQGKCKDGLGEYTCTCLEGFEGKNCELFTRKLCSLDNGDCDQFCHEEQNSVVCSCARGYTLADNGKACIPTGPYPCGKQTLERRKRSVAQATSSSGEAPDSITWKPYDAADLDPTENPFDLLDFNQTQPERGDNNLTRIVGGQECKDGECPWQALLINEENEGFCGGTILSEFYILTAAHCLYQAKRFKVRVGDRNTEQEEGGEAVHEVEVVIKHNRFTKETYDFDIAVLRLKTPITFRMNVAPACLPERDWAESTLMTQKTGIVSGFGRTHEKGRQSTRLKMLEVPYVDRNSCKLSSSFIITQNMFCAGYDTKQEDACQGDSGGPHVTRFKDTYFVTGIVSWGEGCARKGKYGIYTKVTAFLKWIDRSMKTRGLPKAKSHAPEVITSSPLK
Sequence of Factor X (FX), substrate zymogen, P00742 (P00742 whole entry, looked up): as above

Protein | KM (Factor X (FX), P00742) | kcat of FX activation by FIXa in the Xase complex (FVIIIa, PC/PS vesicles, Ca2+) (Factor X (FX), P00742) | catalytic activity (kcat/KM) for activation of FX in the Xase complex (FVIIIa, PC/PS vesicles, Ca2+), fluorogenic FXa read-out [1] | KM (nM); Catalytic activity of FIXa variants (KM) (Factor X (FX), P00742) | K0.5-mut/K0.5-wt (against Catalyst Biosciences WT FIXa) [2] | kcat/KM (Factor X (FX), P00742) | K0.5-mut/K0.5-wt (against Catalyst Biosciences WT FIXa) [3]
FIXa-R318Y/R338E/T343R/E410N (protein) chain 1: YNSGKLEEFVQGNLERECMEEKCSFEEAREVFENTERTTEFWKQYVDGDQCESNPCLNGGSCKDDINSYECWCPFGFEGKNCELDVTCNIKNGRCEQFCKNSADNKVVCSCTEGYRLAENQKSCEPAVPFPCGRVSVSQTSKLTR chain 2: VVGGEDAKPGQFPWQVVLNGKVDAFCGGSIVNEKWIVTAAHCVETGVKITVVAGEHNIEETEHTEQKRNVIRIIPHHNYNAAINKYNHDIALLELDEPLVLNSYVTPICIADKEYTNIFLKFGSGYVSGWGRVFHKGYSALVLQYLRVPLVDRATCLESTKFRIYNNMFCAGFHEGGRDSCQGDSGGPHVTEVEGTSFLTGIISWGEECAMKGKYGIYTKVSRYVNWIKNKTKLT | 0.0164 µM | 4.9 s⁻¹ | displayed some of the greatest increases in catalytic activity | – | – | – | –
FIXa-K247N/N249S/N260S (protein) chain 1: YNSGKLEEFVQGNLERECMEEKCSFEEAREVFENTERTTEFWKQYVDGDQCESNPCLNGGSCKDDINSYECWCPFGFEGKNCELDVTCNIKNGRCEQFCKNSADNKVVCSCTEGYRLAENQKSCEPAVPFPCGRVSVSQTSKLTR chain 2: VVGGEDAKPGQFPWQVVLNGKVDAFCGGSIVNEKWIVTAAHCVETGVKITVVAGEHNIEETEHTEQNRSVIRIIPHHNYSAAINKYNHDIALLELDEPLVLNSYVTPICIADKEYTNIFLKFGSGYVSGWGRVFHKGRSALVLQYLRVPLVDRATCLRSTKFTIYNNMFCAGFHEGGRDSCQGDSGGPHVTEVEGTSFLTGIISWGEECAMKGKYGIYTKVSRYVNWIKEKTKLT | – | 3.3 s⁻¹ | – | 114 nM | 8.1 | – | –
FIXa-R318Y/R338E/N346Y/R403E/E410N (protein) chain 1: YNSGKLEEFVQGNLERECMEEKCSFEEAREVFENTERTTEFWKQYVDGDQCESNPCLNGGSCKDDINSYECWCPFGFEGKNCELDVTCNIKNGRCEQFCKNSADNKVVCSCTEGYRLAENQKSCEPAVPFPCGRVSVSQTSKLTR chain 2: VVGGEDAKPGQFPWQVVLNGKVDAFCGGSIVNEKWIVTAAHCVETGVKITVVAGEHNIEETEHTEQKRNVIRIIPHHNYNAAINKYNHDIALLELDEPLVLNSYVTPICIADKEYTNIFLKFGSGYVSGWGRVFHKGYSALVLQYLRVPLVDRATCLESTKFTIYYNMFCAGFHEGGRDSCQGDSGGPHVTEVEGTSFLTGIISWGEECAMKGKYGIYTKVSEYVNWIKNKTKLT | 0.0281 µM | 3.4 s⁻¹ | – | – | > 517 | – | –
FIXa-D104N/K106S/K247N/N249S/N260S (protein) chain 1: YNSGKLEEFVQGNLERECMEEKCSFEEAREVFENTERTTEFWKQYVDGDQCESNPCLNGGSCKDDINSYECWCPFGFEGKNCELDVTCNIKNGRCEQFCKNSANNSVVCSCTEGYRLAENQKSCEPAVPFPCGRVSVSQTSKLTR chain 2: VVGGEDAKPGQFPWQVVLNGKVDAFCGGSIVNEKWIVTAAHCVETGVKITVVAGEHNIEETEHTEQNRSVIRIIPHHNYSAAINKYNHDIALLELDEPLVLNSYVTPICIADKEYTNIFLKFGSGYVSGWGRVFHKGRSALVLQYLRVPLVDRATCLRSTKFTIYNNMFCAGFHEGGRDSCQGDSGGPHVTEVEGTSFLTGIISWGEECAMKGKYGIYTKVSRYVNWIKEKTKLT | – | 0.6 s⁻¹ | – | 61.2 nM | 65.3 | – | –
FIXa-R318Y/R338E/Y345A/N346D/R403E/E410N (protein) chain 1: YNSGKLEEFVQGNLERECMEEKCSFEEAREVFENTERTTEFWKQYVDGDQCESNPCLNGGSCKDDINSYECWCPFGFEGKNCELDVTCNIKNGRCEQFCKNSADNKVVCSCTEGYRLAENQKSCEPAVPFPCGRVSVSQTSKLTR chain 2: VVGGEDAKPGQFPWQVVLNGKVDAFCGGSIVNEKWIVTAAHCVETGVKITVVAGEHNIEETEHTEQKRNVIRIIPHHNYNAAINKYNHDIALLELDEPLVLNSYVTPICIADKEYTNIFLKFGSGYVSGWGRVFHKGYSALVLQYLRVPLVDRATCLESTKFTIADNMFCAGFHEGGRDSCQGDSGGPHVTEVEGTSFLTGIISWGEECAMKGKYGIYTKVSEYVNWIKNKTKLT | 0.0565 µM | 1.2 s⁻¹ | – | – | > 517 | – | –
FIXa-Y155F/K247N/N249S/N260S (protein) chain 1: YNSGKLEEFVQGNLERECMEEKCSFEEAREVFENTERTTEFWKQYVDGDQCESNPCLNGGSCKDDINSYECWCPFGFEGKNCELDVTCNIKNGRCEQFCKNSADNKVVCSCTEGYRLAENQKSCEPAVPFPCGRVSVSQTSKLTR chain 2: VVGGEDAKPGQFPWQVVLNGKVDAFCGGSIVNEKWIVTAAHCVETGVKITVVAGEHNIEETEHTEQNRSVIRIIPHHNYSAAINKYNHDIALLELDEPLVLNSYVTPICIADKEYTNIFLKFGSGYVSGWGRVFHKGRSALVLQYLRVPLVDRATCLRSTKFTIYNNMFCAGFHEGGRDSCQGDSGGPHVTEVEGTSFLTGIISWGEECAMKGKYGIYTKVSRYVNWIKEKTKLT | – | 1.8 s⁻¹ | – | 96.5 nM | 7.9 | – | –
FIXa-D104N/K106S/Y155F/K247N/N249S/N260S (protein) chain 1: YNSGKLEEFVQGNLERECMEEKCSFEEAREVFENTERTTEFWKQYVDGDQCESNPCLNGGSCKDDINSYECWCPFGFEGKNCELDVTCNIKNGRCEQFCKNSANNSVVCSCTEGYRLAENQKSCEPAVPFPCGRVSVSQTSKLTR chain 2: VVGGEDAKPGQFPWQVVLNGKVDAFCGGSIVNEKWIVTAAHCVETGVKITVVAGEHNIEETEHTEQNRSVIRIIPHHNYSAAINKYNHDIALLELDEPLVLNSYVTPICIADKEYTNIFLKFGSGYVSGWGRVFHKGRSALVLQYLRVPLVDRATCLRSTKFTIYNNMFCAGFHEGGRDSCQGDSGGPHVTEVEGTSFLTGIISWGEECAMKGKYGIYTKVSRYVNWIKEKTKLT | – | 0.5 s⁻¹ | – | 68.5 nM | 35.8 | – | –
FIXa-R318Y/R338E/T343R/N346Y/R403E/E410N (protein) chain 1: YNSGKLEEFVQGNLERECMEEKCSFEEAREVFENTERTTEFWKQYVDGDQCESNPCLNGGSCKDDINSYECWCPFGFEGKNCELDVTCNIKNGRCEQFCKNSADNKVVCSCTEGYRLAENQKSCEPAVPFPCGRVSVSQTSKLTR chain 2: VVGGEDAKPGQFPWQVVLNGKVDAFCGGSIVNEKWIVTAAHCVETGVKITVVAGEHNIEETEHTEQKRNVIRIIPHHNYNAAINKYNHDIALLELDEPLVLNSYVTPICIADKEYTNIFLKFGSGYVSGWGRVFHKGYSALVLQYLRVPLVDRATCLESTKFRIYYNMFCAGFHEGGRDSCQGDSGGPHVTEVEGTSFLTGIISWGEECAMKGKYGIYTKVSEYVNWIKNKTKLT | 0.0158 µM | 4.6 s⁻¹ | – | – | > 517 | – | –
FIXa-K247N/N249S/N260S/R318Y/R338E/R403E/E410N (protein) chain 1: YNSGKLEEFVQGNLERECMEEKCSFEEAREVFENTERTTEFWKQYVDGDQCESNPCLNGGSCKDDINSYECWCPFGFEGKNCELDVTCNIKNGRCEQFCKNSADNKVVCSCTEGYRLAENQKSCEPAVPFPCGRVSVSQTSKLTR chain 2: VVGGEDAKPGQFPWQVVLNGKVDAFCGGSIVNEKWIVTAAHCVETGVKITVVAGEHNIEETEHTEQNRSVIRIIPHHNYSAAINKYNHDIALLELDEPLVLNSYVTPICIADKEYTNIFLKFGSGYVSGWGRVFHKGYSALVLQYLRVPLVDRATCLESTKFTIYNNMFCAGFHEGGRDSCQGDSGGPHVTEVEGTSFLTGIISWGEECAMKGKYGIYTKVSEYVNWIKNKTKLT | 0.0474 µM | 3.4 s⁻¹ | – | 62.2 nM | 288 | 9.7e+07 M⁻¹ s⁻¹ | –
FIXa-Y155F/R318Y/R338E/N346D/R403E/E410N (protein) chain 1: YNSGKLEEFVQGNLERECMEEKCSFEEAREVFENTERTTEFWKQYVDGDQCESNPCLNGGSCKDDINSYECWCPFGFEGKNCELDVTCNIKNGRCEQFCKNSADNKVVCSCTEGYRLAENQKSCEPAVPFPCGRVSVSQTSKLTR chain 2: VVGGEDAKPGQFPWQVVLNGKVDAFCGGSIVNEKWIVTAAHCVETGVKITVVAGEHNIEETEHTEQKRNVIRIIPHHNYNAAINKYNHDIALLELDEPLVLNSYVTPICIADKEYTNIFLKFGSGYVSGWGRVFHKGYSALVLQYLRVPLVDRATCLESTKFTIYDNMFCAGFHEGGRDSCQGDSGGPHVTEVEGTSFLTGIISWGEECAMKGKYGIYTKVSEYVNWIKNKTKLT | – | 6.4 s⁻¹ | – | 100 nM | > 517 | – | > 517
FIXa-R318Y/R338E/T343R/N346D/R403E/E410N (protein) chain 1: YNSGKLEEFVQGNLERECMEEKCSFEEAREVFENTERTTEFWKQYVDGDQCESNPCLNGGSCKDDINSYECWCPFGFEGKNCELDVTCNIKNGRCEQFCKNSADNKVVCSCTEGYRLAENQKSCEPAVPFPCGRVSVSQTSKLTR chain 2: VVGGEDAKPGQFPWQVVLNGKVDAFCGGSIVNEKWIVTAAHCVETGVKITVVAGEHNIEETEHTEQKRNVIRIIPHHNYNAAINKYNHDIALLELDEPLVLNSYVTPICIADKEYTNIFLKFGSGYVSGWGRVFHKGYSALVLQYLRVPLVDRATCLESTKFRIYDNMFCAGFHEGGRDSCQGDSGGPHVTEVEGTSFLTGIISWGEECAMKGKYGIYTKVSEYVNWIKNKTKLT | 0.067 µM | 5.4 s⁻¹ | – | – | > 517 | – | –
FIXa-R318Y/R338E/Y345A/R403E/E410N (protein) chain 1: YNSGKLEEFVQGNLERECMEEKCSFEEAREVFENTERTTEFWKQYVDGDQCESNPCLNGGSCKDDINSYECWCPFGFEGKNCELDVTCNIKNGRCEQFCKNSADNKVVCSCTEGYRLAENQKSCEPAVPFPCGRVSVSQTSKLTR chain 2: VVGGEDAKPGQFPWQVVLNGKVDAFCGGSIVNEKWIVTAAHCVETGVKITVVAGEHNIEETEHTEQKRNVIRIIPHHNYNAAINKYNHDIALLELDEPLVLNSYVTPICIADKEYTNIFLKFGSGYVSGWGRVFHKGYSALVLQYLRVPLVDRATCLESTKFTIANNMFCAGFHEGGRDSCQGDSGGPHVTEVEGTSFLTGIISWGEECAMKGKYGIYTKVSEYVNWIKNKTKLT | 0.0188 µM | 1.4 s⁻¹ | – | – | > 517 | – | –
